Source: patent US20260159603A1 (BEAM THERAPEUTICS, published 2026)
Positions count from the first letter of the chain named.

Experiments:
huCD5-BTN = molecular target: T1, huCD5-BTN (human, UniProt P06127 25-372, limits assumed, biotinylated (BTN)); assay: BLI in tandem, huCD5-BTN saturated with UCHT2 first; competitor UCHT2
T1 construct: Loaded onto streptavidin biosensors; also called human CD5
T1 sequence (looked up): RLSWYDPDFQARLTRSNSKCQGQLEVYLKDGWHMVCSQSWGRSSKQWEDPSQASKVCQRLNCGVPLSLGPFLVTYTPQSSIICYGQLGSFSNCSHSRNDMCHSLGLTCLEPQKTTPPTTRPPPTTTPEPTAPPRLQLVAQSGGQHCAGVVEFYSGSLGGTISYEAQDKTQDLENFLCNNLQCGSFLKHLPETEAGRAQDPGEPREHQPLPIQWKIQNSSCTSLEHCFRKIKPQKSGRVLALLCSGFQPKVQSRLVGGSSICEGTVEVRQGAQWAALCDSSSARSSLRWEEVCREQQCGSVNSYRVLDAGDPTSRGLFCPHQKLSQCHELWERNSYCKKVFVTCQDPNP

[1] = molecular target: T2, biotinylated human CD5-HIS (human, UniProt P06127 25-372, biotinylated); assay: BLI; KD on human CD5 divided by KD on cynomolgus CD5
T2 construct: Loaded onto streptavidin Octet pins; also called huCD5; SA-human CD5; not shown: HIS tag
T2 sequence (looked up): T1 sequence (looked up)

[2] = molecular target: T3, biotinylated cynomolgus CD5-HIS (cynomolgus); assay: BLI (Octet), biotinylated CD5-HIS on streptavidin pins, periplasmic extract, off-rate
T3 construct: Loaded onto streptavidin Octet pins; also called CynoCD5; SA-Cyno CD5

[3] = molecular target: T2, biotinylated human CD5-HIS; assay: as above
[4] = molecular target: T4, cynomolgus CD5 on transfected HEK293T cells (cynomolgus (Table 8B); rhesus macaque …); assay: flow cytometry, periplasmic extract on transfected HEK293T cells
T4 construct: whole, on cells; also called Cynomolgus CD5 Cells; rhesus macaque (Macaca mulatta) CD5

[5] = molecular target: T5, human CD5 on transfected HEK293T cells (human, UniProt P06127 25-495); assay: as above
T5 construct: whole, on cells; also called huCD5; Human CD5 Cells
T5 sequence (looked up): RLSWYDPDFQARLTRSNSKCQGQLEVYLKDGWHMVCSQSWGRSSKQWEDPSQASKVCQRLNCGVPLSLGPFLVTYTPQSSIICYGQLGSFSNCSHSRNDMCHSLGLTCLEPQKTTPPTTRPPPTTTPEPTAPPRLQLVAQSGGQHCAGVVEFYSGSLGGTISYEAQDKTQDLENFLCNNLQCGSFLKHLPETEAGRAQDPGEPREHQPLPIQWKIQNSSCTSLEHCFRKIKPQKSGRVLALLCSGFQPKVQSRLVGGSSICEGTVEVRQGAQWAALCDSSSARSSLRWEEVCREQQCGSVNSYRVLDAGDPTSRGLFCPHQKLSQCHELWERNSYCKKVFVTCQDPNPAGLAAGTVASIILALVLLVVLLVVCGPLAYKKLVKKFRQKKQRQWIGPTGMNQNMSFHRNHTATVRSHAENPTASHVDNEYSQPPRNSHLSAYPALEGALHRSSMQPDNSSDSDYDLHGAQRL

[6] = molecular target: T3, biotinylated cynomolgus CD5-HIS; assay: BLI (Octet), biotinylated CD5-HIS on streptavidin pins
[7] = molecular target: T2, biotinylated human CD5-HIS; assay: as above

B1: ABTx322 VHH-Fc (Fc fusion)
chain: QLQLVESGGGLVQPGGSLRLSCAASGSDFLVDATTWFRQAPGNQREFVAIMDIGGVTEYADSVKGRFTISRDHTKNTVYLQMNSLKVEDTAVYYCNTRGLWGQGTLVTVSS
notes: VHH as Fc fusion protein; order of the parts and the Fc are not described; also called anti-CD5 VHH-Fc; not shown: Fc (detected with anti-Human Fc)
- response (huCD5-BTN): -0.137 Response Units

B2: ABTx320 VHH-Fc (Fc fusion)
chain: QVQLVESGGGLVQAGGSLRLSCAASGPAFSSSGMGWFRQAPGKAREFVASMDWTGGSTYYGDSVKGRFTVSRDNAKMTVHLQMNSLRPEDTAVYYCARGTSGVAAVNLRGFFSWGPGTQVTVSS
notes: as for B1
- response (huCD5-BTN): 0.325 Response Units

B3: ABTx330 (VHH)
VHH: EVQLVESGGGLVQPGGSLRLSCAASGFPFSSSFMSWVRQAPGKGLEWVSTIYSDGSTYYADSVKGRFTISRDNAKKTAYLQMNSLKAEDTAVYYCATVTGSIRGQGTQVTVSS
notes: VHH in periplasmic extract of the phage display clone; also called clone 563; not shown: c-myc tag of the phagemid construct (detected with anti-c-myc 9E10)
- Hu/Cyno KD [1]: 0.5
- koff [2]: 0.0102 s⁻¹
- koff [3]: 0.00231 s⁻¹
- percent of cells showing binding [4]: 72%
- percent of cells showing binding [5]: 78.6%
- Kd [6]: 1.4 nM
- koff [6]: 0.00014 s⁻¹
- kon [6]: 110000 M⁻¹ s⁻¹
- Kd [7]: 0.65 nM
- koff [7]: 8.3e-05 s⁻¹
- kon [7]: 130000 M⁻¹ s⁻¹

B4: ABTx330 VHH-Fc (Fc fusion)
chain: B3 VHH
notes: as for B1
- response (huCD5-BTN): 0.367 Response Units

B5: ABTx319 VHH-Fc (Fc fusion)
chain: QVQLVESGGGLVQPGGSLRLSCAASGFTFSMYSMSWVRQAPGKRLEWVSSISTGARDTAYADSVKGRFTISRDNADNTLYLHMNNLKPEDTAVYYCANGDLRYGPDGYDYRGQGTQVTVSS
notes: as for B1
- response (huCD5-BTN): 1.17 Response Units

B6: ABTx326 VHH-Fc (Fc fusion)
chain: QVQLVESGGGLVQPGGSLRLSCAASGRTFINYAAGWFRQAPGKEREFVARISRSGGRTDYADSVKGRFTISRDNAKSTVYLQMNSLRPEDTAVYYCAEATVWEFTDGADQYDYWGQGTQVTVSS
notes: as for B1
- response (huCD5-BTN): 0.0571 Response Units

B7: ABTx329 VHH-Fc (Fc fusion)
chain: QLQLVESGGGLVQPGESLRLSCAASGFSFSRVGMNWYRQAPGKERELVASISSDGSRTNYAHFVKGRFTISRDNVKNMVYLQMNSLKLEDTAVYYCNVPGNSWGQGTQVTVSS
notes: as for B1
- response (huCD5-BTN): 0.24 Response Units

B8: ABTx321 VHH-Fc (Fc fusion)
chain: QLQLVESGGGLVQPGESLRLSCVVSGDIFSFVGWGWYRQAPGKQREVVAQISTGGLTNYADSVKGRFAISRDNAKRTVYLQMNSLKFEDTAVYYCNVPGHPWGQGTQVTVSS
notes: as for B1
- response (huCD5-BTN): 0.0713 Response Units

B9: ABTx328 VHH-Fc (Fc fusion)
chain: B8 chain with L2V, V32I, V47L, S52N, N58D, A68T, V97F, P101S
notes: as for B1
- response (huCD5-BTN): 0.153 Response Units

B10: ABTx323 VHH-Fc (Fc fusion)
chain: QVQLQESGGGLVQAGGSLRLSCATSGITSSINVIGWYRQAPGKQRELVALVNSGGQTHYADSVKGRFTISRDNAKNTVFLQMNSLKPEDTAEYYCHGRYGIDNYWGEGTQVTVSS
notes: as for B1
- response (huCD5-BTN): 0.317 Response Units

B11: ABTx327 VHH-Fc (Fc fusion)
chain: QVQLVESGGGLVQPGGSLRLSCVASGGTFSTYGMGWFRQAPGKEREFVAVITGSGVGTQYADSVKDRFTISRENAKNTVYLQMNTLKLEDTAVYYCVSGHRPGWAVIRADAYEYWGQGTQVTVSS
notes: as for B1
- response (huCD5-BTN): 0.025 Response Units

B12: ABTx318 VHH-Fc (Fc fusion)
chain: QVQLQESGGGSVQAGGSLRLSCAASGRAFSAYAMGWFRQAPGKEREFVAAINWNGDTALRWNGFATRYADSVKGRFTISRVIAKNTVNLQMNSLKPEDTAVYYCAADTVVSGSYYLAARAEDYEYWGQGTQVTVSS
notes: as for B1
- response (huCD5-BTN): 1.15 Response Units

B13: ABTx317 (VHH)
VHH: QVQLVESGGGLVQAGASLRLSCAASGRTTYNMGWFRHAPGKDREFVAAIDLYGRATRYANSVKGRFTISRDNAKNTVYLQMNSLKPEDTAVYYCAADTSLPLGVLTKSQRMYGAWGQGTQVTVSS
notes: VHH in periplasmic extract of the phage display clone; also called clone 280; not shown: c-myc tag of the phagemid construct (detected with anti-c-myc 9E10)
- Hu/Cyno KD [1]: 0.9
- koff [2]: 0.118 s⁻¹
- koff [3]: 0.0131 s⁻¹
- percent of cells showing binding [4]: 79.5%
- percent of cells showing binding [5]: 82.8%
- Kd [6]: 2.4 nM
- koff [6]: 0.0002 s⁻¹
- kon [6]: 84000 M⁻¹ s⁻¹
- Kd [7]: 2.1 nM
- koff [7]: 0.00015 s⁻¹
- kon [7]: 71000 M⁻¹ s⁻¹

B14: ABTx317 VHH-Fc (Fc fusion)
chain: B13 VHH
notes: as for B1
- response (huCD5-BTN): 1.24 Response Units

B15: ABTx331 (VHH)
VHH: B13 VHH with K107E, M111L
notes: VHH in periplasmic extract of the phage display clone; also called clone 225; not shown: c-myc tag of the phagemid construct (detected with anti-c-myc 9E10)
- Hu/Cyno KD [1]: 0.6
- koff [2]: 0.0557 s⁻¹
- koff [3]: 0.0145 s⁻¹
- percent of cells showing binding [4]: 71.8%
- percent of cells showing binding [5]: 89.2%
- Kd [6]: 2.2 nM
- koff [6]: 0.00016 s⁻¹
- kon [6]: 71000 M⁻¹ s⁻¹
- Kd [7]: 1.3 nM
- koff [7]: 0.00012 s⁻¹
- kon [7]: 94000 M⁻¹ s⁻¹

B16: ABTx331 VHH-Fc (Fc fusion)
chain: B13 VHH with K107E, M111L
notes: as for B1
- response (huCD5-BTN): 0.232 Response Units

B17: ABTx315 (VHH)
VHH: QVQLVESGGGLVQAGGSLRLSCAASGRTFGTYTMGWFRQAPGREREFVAAISWSAGRTYYADSMKGRFTISRDNAKNTVYLQMNSLKPEDTAVYYCAADPWTSDSDYDRLTMYDYWGQGTQVTVSS
notes: VHH in periplasmic extract of the phage display clone; also called clone 502; not shown: c-myc tag of the phagemid construct (detected with anti-c-myc 9E10)
- Hu/Cyno KD [1]: 1.8
- koff [2]: 0.000345 s⁻¹
- koff [3]: 0.000566 s⁻¹
- percent of cells showing binding [4]: 79.1%
- percent of cells showing binding [5]: 86.4%
- Kd [6]: 0.22 nM
- koff [6]: 5.8e-05 s⁻¹
- kon [6]: 260000 M⁻¹ s⁻¹
- Kd [7]: 0.4 nM
- koff [7]: 6.3e-05 s⁻¹
- kon [7]: 160000 M⁻¹ s⁻¹

B18: ABTx315 VHH-Fc (Fc fusion)
chain: B17 VHH
notes: as for B1
- response (huCD5-BTN): 0.498 Response Units

B19: ABTx316 VHH-Fc (Fc fusion)
chain: QVQLVESGGGLVQAGGSLRLSCAASGGTVSSYAMGWFRQAPGKEREFVAVISWSGGRTYYADSVKGRFTISRDNAKNTVNLQMNSLKPEDTAVYYCAADPWTSDSDYERLTMYDYWGQGTQVTVSS
notes: as for B1
- response (huCD5-BTN): 0.394 Response Units

B20: ABTx316 (VHH)
VHH: B19 chain
notes: VHH in periplasmic extract of the phage display clone; also called clone 525; not shown: c-myc tag of the phagemid construct (detected with anti-c-myc 9E10)
- Hu/Cyno KD [1]: 0.9
- koff [2]: 0.0343 s⁻¹
- koff [3]: 0.0054 s⁻¹
- percent of cells showing binding [4]: 81.7%
- percent of cells showing binding [5]: 85.8%
- Kd [6]: 1.6 nM
- koff [6]: 0.00021 s⁻¹
- kon [6]: 130000 M⁻¹ s⁻¹
- Kd [7]: 1.4 nM
- koff [7]: 0.00015 s⁻¹
- kon [7]: 110000 M⁻¹ s⁻¹

B21: ABTx324 VHH-Fc (Fc fusion)
chain: QVQLVESGGGLVQPGGSVRLSCATSGSIFSTNVMGWYRQAPGKEREFVALIRGGGSTHYADSVKGRFIISRENAKTTVYLQMNGLKPEDTAVYYCVIWLGSPGAMSDYWGQGTQVTVSS
notes: as for B1
- response (huCD5-BTN): 0.663 Response Units

B22: ABTx325 VHH-Fc (Fc fusion)
chain: QVQLVESGGGLVQPGGSLRLSCAASGSDASTNNMAWYRQAPGKEREFVALIRTGGSTHVADSMKGRFTISRENAKNTVYLQMNSLKPEDTAVYYCVIWTGSPGALSDYWGQGTQVTVSS
notes: as for B1
- response (huCD5-BTN): 0.396 Response Units
